# According to the supplement of paper PMC9112550, “Optimization of the antimicrobial peptide Bac7 by deep mutational scanning” (BMC Biology, 2022):
# Test system: Escherichia coli TOP10
# Assay: shrunken log2 fold change of peptide-encoding DNA abundance (4.5 h post-induction vs induction); higher = less antimicrobial activity (less host growth inhibition)
# Conditions: time post-induction: 4.5 h; library: site-saturation at positions 5, 18, 19, 20
# 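Further: peptides expressed intracellularly from a pBAD plasmid library in pooled LB shake-flask culture, induced with 0.3% L-arabinose, DNA abundance read by NGS, three biological replicates, DESeq2 with apeglm shrinkage.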
row,Sequence,shrunken log2 fold change
1,RRIRFRPPRLPRPRPRPWQWPRP,0.00967
2,RRIRHRPPRLPRPRPRPWFFPRP,-0.379
3,RRIRTRPPRLPRPRPRPYRIPRP,-0.0176
4,RRIRERPPRLPRPRPRPWFNPRP,-0.599
5,RRIRVRPPRLPRPRPRPQGCPRP,-0.0651
6,RRIRMRPPRLPRPRPRPRPPPRP,1.55
7,RRIRYRPPRLPRPRPRPCAEPRP,-0.835
8,RRIRHRPPRLPRPRPRPPHQPRP,-0.151
9,RRIRVRPPRLPRPRPRPRKSPRP,0.337
10,RRIRLRPPRLPRPRPRPHDYPRP,-0.398
11,RRIRQRPPRLPRPRPRPMLTPRP,-0.185
12,RRIRPRPPRLPRPRPRPITDPRP,-0.16
13,RRIRRRPPRLPRPRPRPKNFPRP,0.151
14,RRIRIRPPRLPRPRPRPRTTPRP,-0.25
15,RRIRRRPPRLPRPRPRPMYRPRP,0.0278
16,RRIRRRPPRLPRPRPRPWLCPRP,0.102
17,RRIRWRPPRLPRPRPRPNVVPRP,-0.144
18,RRIRGRPPRLPRPRPRPHVIPRP,-0.191
19,RRIRDRPPRLPRPRPRPKSHPRP,-0.204
20,RRIRLRPPRLPRPRPRPTDIPRP,-0.0682
21,RRIRCRPPRLPRPRPRPMIVPRP,0.0976
22,RRIRFRPPRLPRPRPRPGIPPRP,-0.183
23,RRIRDRPPRLPRPRPRPAVNPRP,0.092
24,RRIRVRPPRLPRPRPRPQHPPRP,-0.0951
25,RRIRNRPPRLPRPRPRPKVTPRP,-0.0149

row,Sequence,shrunken log2 fold change
1,RRIRKRPPRLPRPRPRPRTLPRP,0.454
2,RRIRMRPPRLPRPRPRPNLVPRP,0.288
3,RRIRYRPPRLPRPRPRPPPKPRP,1.24
4,RRIRKRPPRLPRPRPRPLLNPRP,-0.295
5,RRIRDRPPRLPRPRPRPINAPRP,0.00476
6,RRIRKRPPRLPRPRPRPMGCPRP,0.408
7,RRIRDRPPRLPRPRPRPIGDPRP,-0.00843
8,RRIRSRPPRLPRPRPRPKFCPRP,-0.471
9,RRIRLRPPRLPRPRPRPAWFPRP,0.103
10,RRIRIRPPRLPRPRPRPDVIPRP,-0.00836
11,RRIRTRPPRLPRPRPRPFIKPRP,-0.57
12,RRIRRRPPRLPRPRPRPCPSPRP,0.0616
13,RRIRYRPPRLPRPRPRPLGLPRP,-0.126
14,RRIRVRPPRLPRPRPRPDMPPRP,-0.264
15,RRIRWRPPRLPRPRPRPVHNPRP,-0.152
16,RRIRSRPPRLPRPRPRPTCMPRP,0.0286
17,RRIRTRPPRLPRPRPRPNVDPRP,-0.625
18,RRIRTRPPRLPRPRPRPARWPRP,0.471
19,RRIRNRPPRLPRPRPRPRIAPRP,0.069
20,RRIRERPPRLPRPRPRPCNKPRP,-0.858
21,RRIRNRPPRLPRPRPRPKSLPRP,-0.433
22,RRIRWRPPRLPRPRPRPHPLPRP,-0.0381
23,RRIRRRPPRLPRPRPRPATCPRP,0.161
24,RRIRYRPPRLPRPRPRPWLHPRP,-0.991
25,RRIRARPPRLPRPRPRPCVKPRP,0.069

row,Sequence,shrunken log2 fold change
1,RRIRSRPPRLPRPRPRPSNQPRP,-0.242
2,RRIRRRPPRLPRPRPRPVSPPRP,0.0657
3,RRIRARPPRLPRPRPRPWPTPRP,0.703
4,RRIRQRPPRLPRPRPRPRCVPRP,1.47
5,RRIRRRPPRLPRPRPRPFCIPRP,-0.174
6,RRIRNRPPRLPRPRPRPHPAPRP,0.116
7,RRIRNRPPRLPRPRPRPPGMPRP,-0.138
8,RRIRTRPPRLPRPRPRPLDCPRP,-0.294
9,RRIRQRPPRLPRPRPRPTANPRP,0.197
10,RRIRGRPPRLPRPRPRPVKYPRP,0.235
11,RRIRWRPPRLPRPRPRPHHWPRP,0.13
12,RRIRTRPPRLPRPRPRPTDMPRP,-0.0264
13,RRIRHRPPRLPRPRPRPSMQPRP,-0.124
14,RRIRFRPPRLPRPRPRPAKNPRP,-0.0212
15,RRIRSRPPRLPRPRPRPRSYPRP,-0.066
16,RRIRTRPPRLPRPRPRPELNPRP,0.195
17,RRIRIRPPRLPRPRPRPCWWPRP,0.082
18,RRIRLRPPRLPRPRPRPGFTPRP,-0.191
19,RRIRTRPPRLPRPRPRPEKMPRP,0.171
20,RRIRYRPPRLPRPRPRPPKRPRP,-0.121
21,RRIRNRPPRLPRPRPRPSESPRP,-0.0302
22,RRIRTRPPRLPRPRPRPICLPRP,-0.14
23,RRIRKRPPRLPRPRPRPRHEPRP,-0.115
24,RRIRFRPPRLPRPRPRPPPKPRP,1.58
25,RRIRDRPPRLPRPRPRPECQPRP,-0.00804

row,Sequence,shrunken log2 fold change
1,RRIRQRPPRLPRPRPRPYMCPRP,-0.184
2,RRIRVRPPRLPRPRPRPELIPRP,0.0562
3,RRIRVRPPRLPRPRPRPLLAPRP,0.343
4,RRIRHRPPRLPRPRPRPEFMPRP,0.0682
5,RRIRFRPPRLPRPRPRPDLPPRP,-0.0804
6,RRIRLRPPRLPRPRPRPYFTPRP,-0.468
7,RRIRGRPPRLPRPRPRPVHQPRP,0.228
8,RRIRDRPPRLPRPRPRPTTWPRP,0.467
9,RRIRVRPPRLPRPRPRPLVPPRP,-0.0493
10,RRIRPRPPRLPRPRPRPNCKPRP,-0.048
11,RRIRHRPPRLPRPRPRPFGEPRP,-0.0377
12,RRIRTRPPRLPRPRPRPGRFPRP,-0.0311
13,RRIRNRPPRLPRPRPRPHSVPRP,-0.015
14,RRIRYRPPRLPRPRPRPVVGPRP,-0.172
15,RRIRLRPPRLPRPRPRPCKCPRP,-0.0362
16,RRIRVRPPRLPRPRPRPCWCPRP,0.0389
17,RRIRKRPPRLPRPRPRPNQEPRP,-0.0316
18,RRIRYRPPRLPRPRPRPHEPPRP,-0.133
19,RRIRDRPPRLPRPRPRPDSMPRP,0.00619
20,RRIRCRPPRLPRPRPRPTGTPRP,0.0453
21,RRIRSRPPRLPRPRPRPTAMPRP,0.4
22,RRIRQRPPRLPRPRPRPHHWPRP,-0.0737
23,RRIRTRPPRLPRPRPRPPTAPRP,-0.0521
24,RRIRGRPPRLPRPRPRPLQLPRP,0.447
25,RRIRRRPPRLPRPRPRPQKKPRP,-0.0695

row,Sequence,shrunken log2 fold change
1,RRIRCRPPRLPRPRPRPPITPRP,-0.286
2,RRIRCRPPRLPRPRPRPKSWPRP,0.323
3,RRIRCRPPRLPRPRPRPFSKPRP,-0.203
4,RRIRARPPRLPRPRPRPSVRPRP,-0.0488
5,RRIRCRPPRLPRPRPRPNYHPRP,-0.93
6,RRIRPRPPRLPRPRPRPLKPPRP,0.0408
7,RRIRTRPPRLPRPRPRPFRPPRP,0.0775
8,RRIRERPPRLPRPRPRPTYVPRP,-0.132
9,RRIRPRPPRLPRPRPRPLWEPRP,0.0604
10,RRIRARPPRLPRPRPRPVIVPRP,0.142
11,RRIRKRPPRLPRPRPRPDINPRP,0.193
12,RRIRRRPPRLPRPRPRPMQLPRP,0.596
13,RRIRVRPPRLPRPRPRPDIMPRP,-0.18
14,RRIRCRPPRLPRPRPRPELHPRP,0.0685
15,RRIRKRPPRLPRPRPRPITFPRP,-0.0147
16,RRIRDRPPRLPRPRPRPLKYPRP,-0.529
17,RRIRLRPPRLPRPRPRPWRAPRP,0.392
18,RRIRMRPPRLPRPRPRPCYVPRP,-0.506
19,RRIRFRPPRLPRPRPRPPKRPRP,0.467
20,RRIRHRPPRLPRPRPRPQTPPRP,0.374
21,RRIRWRPPRLPRPRPRPNGKPRP,0.123
22,RRIRWRPPRLPRPRPRPVSCPRP,0.0517
23,RRIRHRPPRLPRPRPRPQGCPRP,-0.0592
24,RRIRMRPPRLPRPRPRPLASPRP,1.34
25,RRIRHRPPRLPRPRPRPCMMPRP,-0.0344

row,Sequence,shrunken log2 fold change
1,RRIRVRPPRLPRPRPRPCFMPRP,-0.302
2,RRIRTRPPRLPRPRPRPNEMPRP,-0.235
3,RRIRVRPPRLPRPRPRPHSTPRP,-0.418
4,RRIRIRPPRLPRPRPRPCTGPRP,-0.887
5,RRIRNRPPRLPRPRPRPRISPRP,-0.408
6,RRIRHRPPRLPRPRPRPLYYPRP,-0.611
7,RRIRHRPPRLPRPRPRPACTPRP,0.0224
8,RRIRCRPPRLPRPRPRPPRDPRP,0.84
9,RRIRFRPPRLPRPRPRPNHSPRP,-0.832
10,RRIRKRPPRLPRPRPRPPHFPRP,0.519
11,RRIRQRPPRLPRPRPRPDCIPRP,-0.0167
12,RRIRKRPPRLPRPRPRPQGDPRP,0.0739
13,RRIRSRPPRLPRPRPRPGTAPRP,0.33
14,RRIRVRPPRLPRPRPRPINGPRP,-0.17
15,RRIRTRPPRLPRPRPRPDTPPRP,-0.193
16,RRIRCRPPRLPRPRPRPVSEPRP,0.00852
17,RRIRARPPRLPRPRPRPSNMPRP,-0.28
18,RRIRYRPPRLPRPRPRPTNVPRP,-0.868
19,RRIRERPPRLPRPRPRPVGMPRP,-0.0934
20,RRIRIRPPRLPRPRPRPWEFPRP,-0.000856
21,RRIRHRPPRLPRPRPRPGSQPRP,0.0187
22,RRIRSRPPRLPRPRPRPFHDPRP,-0.204
23,RRIRDRPPRLPRPRPRPKVFPRP,0.0612
24,RRIRLRPPRLPRPRPRPSIFPRP,-0.709
25,RRIRTRPPRLPRPRPRPEWCPRP,0.272
